Results: patent US20070286858A1 (Pfizer, published 2007)

Biological target: T1, human RAGE-Fc fusion protein (human, UniProt Q15109 23-344)
T1 construct: also called hRAGE-Fc; huRAGE-Fc; not shown: Fc domain of human IgG
Test: competition ELISA on coated hRAGE-Fc; competitor 12.5 ng/ml biotinylated rat XT-M4
Protocol: ELISA plates were coated overnight with 1 ug/ml human RAGE-Fc. […] Briefly, plates were coated overnight with 1 ug/ml human RAGE-Fc.

IC50 [µg/mL] | Binder
8.5 | humanized XT-M4 hVH-V2.0 / hVL-V2.7 (antibody, human IgG1, V domains shown) VH: EVQLVESGGGLVQPGGSLRLSCAASGFTFNNYWMTWVRQAPGKGLEWVASIDNSGDNTYYPDSVKDRFTISRDNAKNSLYLQMNSLRAEDTAVYYCARGGDITTGFDYWGQGTLVTVSS VL: DIQMTQSPSSLSASVGDRVTITCRASQDVGIYVNWYQQKPGKAPKRLIYRATNLADGVPSRFSGSGSGTDFTLTISSLQPEDFATYYCLEFDEHPLTFGGGTKVEIK
4 to 9.5 | humanized XT-M4 hVH-V1.0 / hVL-V2.7 (antibody, human IgG1, V domains shown) VH: EVQLVESGGGLVQPGGSLRLSCAASGFTFNNYWMTWVRQAPGKGLEWVASINNSGDNTYYPDSVKDRFTISRDNAKNSLYLQMNSLRSEDTAVYYCARGGDITTGFDYWGQGTLVTVSS VL: DIQMTQSPSSLSASVGDRVTITCRASQDVGIYVNWYQQKPGKAPKRLIYRATNLADGVPSRFSGSGSGTDFTLTISSLQPEDFATYYCLEFDEHPLTFGGGTKVEIK
2.9 | humanized XT-M4 hVH-V2.0 / hVL-V2.4 (antibody, human IgG1, V domains shown) VH: EVQLVESGGGLVQPGGSLRLSCAASGFTFNNYWMTWVRQAPGKGLEWVASIDNSGDNTYYPDSVKDRFTISRDNAKNSLYLQMNSLRAEDTAVYYCARGGDITTGFDYWGQGTLVTVSS VL: DIQMTQSPSSLSASVGDRVTITCRASQDVGIYVNWYQQKPGKAPKLLIYRATNLADGVPSRFSGSRSGTDFTLTISSLQPEDFATYYCLEFDEHPLTFGGGTKVEIK
4.5 to 8.5 | humanized XT-M4 hVH-V1.0 / hVL-V2.4 (antibody, human IgG1, V domains shown) VH: EVQLVESGGGLVQPGGSLRLSCAASGFTFNNYWMTWVRQAPGKGLEWVASINNSGDNTYYPDSVKDRFTISRDNAKNSLYLQMNSLRSEDTAVYYCARGGDITTGFDYWGQGTLVTVSS VL: DIQMTQSPSSLSASVGDRVTITCRASQDVGIYVNWYQQKPGKAPKLLIYRATNLADGVPSRFSGSRSGTDFTLTISSLQPEDFATYYCLEFDEHPLTFGGGTKVEIK

Biological target: T1, human RAGE-Fc fusion protein
Test: competition ELISA on human RAGE-Fc; labelled competitor not named

Binder | ED50 [nM]
mVH / v2.0 (V2, L4, S48) (antibody, V domains shown, XT-H2 construct expressed in COS cells; also called XT-H2 mVH + hVL V2.0) VH: QVQLQQSGAELAKPGASVKMSCKASGYTFTTYWMHWVKQRPGQGLYWIGYINPSTGYTEYNQKFKDKATLTADKSSSTAYMQLSSLTSEDSAVYYCARWAGYTIDYWGQGTSVTVSS VL: DVVLTQTPLSLSVTPGQPASISCKSTKSLLNSDGFTYLDWYLQKPGQSPQLLIYLVSDRFSGVPDRFSGSGSGTDFTLKISRVEAEDVGVYYCFQSNSLPLTFGGGTKVEIK | 7
V2.0 (R40, Y46, I48, A71, K73) / v2.0 (V2, L4, S48) (antibody, V domains shown, XT-H2 construct expressed in COS cells; also called XT-H2 hVH V2.0 + hVL V2.0) VH: QVQLVQSGAEVKKPGASVKVSCKASGYTFTTYWMHWVRQRPGQGLYWIGYINPSTGYTEYNQKFKDRVTMTADTSISTAYMELSRLRSDDTAVYYCARWAGYTIDYWGQGTLVTVSS VL: DVVLTQTPLSLSVTPGQPASISCKSTKSLLNSDGFTYLDWYLQKPGQSPQLLIYLVSDRFSGVPDRFSGSGSGTDFTLKISRVEAEDVGVYYCFQSNSLPLTFGGGTKVEIK | 5
V2.1 (R40A) / v2.1 (antibody, V domains shown, XT-H2 construct expressed in COS cells; also called XT-H2 hVH V2.1 + hVL V2.1) VH: QVQLVQSGAEVKKPGASVKVSCKASGYTFTTYWMHWVRQAPGQGLYWIGYINPSTGYTEYNQKFKDRVTMTADTSISTAYMELSRLRSDDTAVYYCARWAGYTIDYWGQGTLVTVSS VL: DIVMTQTPLSLSVTPGQPASISCKSTKSLLNSDGFTYLDWYLQKPGQSPQLLIYLVSDRFSGVPDRFSGSGSGTDFTLKISRVEAEDVGVYYCFQSNSLPLTFGGGTKVEIK | 7.5
V2.0 (R40, Y46, I48, A71, K73) / mVL (antibody, V domains shown, XT-H2 construct expressed in COS cells; also called XT-H2 hVH V2.0 + mVL) VH: QVQLVQSGAEVKKPGASVKVSCKASGYTFTTYWMHWVRQRPGQGLYWIGYINPSTGYTEYNQKFKDRVTMTADTSISTAYMELSRLRSDDTAVYYCARWAGYTIDYWGQGTLVTVSS VL: DVVLTQTPLSLPVNIGDQASISCKSTKSLLNSDGFTYLDWYLQKPGQSPQLLIYLVSDRFSGVPDRFSGSGSGTDFTLTISRVEAEDLGVYYCFQSNSLPLTFGSGTKLEIK | 8
V2.1 (R40A) / mVL (antibody, V domains shown, XT-H2 construct expressed in COS cells; also called XT-H2 hVH V2.1 + mVL) VH: QVQLVQSGAEVKKPGASVKVSCKASGYTFTTYWMHWVRQAPGQGLYWIGYINPSTGYTEYNQKFKDRVTMTADTSISTAYMELSRLRSDDTAVYYCARWAGYTIDYWGQGTLVTVSS VL: DVVLTQTPLSLPVNIGDQASISCKSTKSLLNSDGFTYLDWYLQKPGQSPQLLIYLVSDRFSGVPDRFSGSGSGTDFTLTISRVEAEDLGVYYCFQSNSLPLTFGSGTKLEIK | 8
V2.2 (Y46E) / v2.0 (antibody, V domains shown, XT-H2 construct expressed in COS cells; also called XT-H2 hVH V2.2 + hVL V2.0) VH: QVQLVQSGAEVKKPGASVKVSCKASGYTFTTYWMHWVRQRPGQGLEWIGYINPSTGYTEYNQKFKDRVTMTADTSISTAYMELSRLRSDDTAVYYCARWAGYTIDYWGQGTLVTVSS VL: DVVLTQTPLSLSVTPGQPASISCKSTKSLLNSDGFTYLDWYLQKPGQSPQLLIYLVSDRFSGVPDRFSGSGSGTDFTLKISRVEAEDVGVYYCFQSNSLPLTFGGGTKVEIK | 4
V2.3 (I48M) / v2.0 (antibody, V domains shown, XT-H2 construct expressed in COS cells; also called XT-H2 hVH V2.3 + hVL V2.0) VH: QVQLVQSGAEVKKPGASVKVSCKASGYTFTTYWMHWVRQRPGQGLYWMGYINPSTGYTEYNQKFKDRVTMTADTSISTAYMELSRLRSDDTAVYYCARWAGYTIDYWGQGTLVTVSS VL: DVVLTQTPLSLSVTPGQPASISCKSTKSLLNSDGFTYLDWYLQKPGQSPQLLIYLVSDRFSGVPDRFSGSGSGTDFTLKISRVEAEDVGVYYCFQSNSLPLTFGGGTKVEIK | 4.5
V2.3 (I48M) / mVL (antibody, V domains shown, XT-H2 construct expressed in COS cells; also called XT-H2 hVH V2.3 + mVL) VH: QVQLVQSGAEVKKPGASVKVSCKASGYTFTTYWMHWVRQRPGQGLYWMGYINPSTGYTEYNQKFKDRVTMTADTSISTAYMELSRLRSDDTAVYYCARWAGYTIDYWGQGTLVTVSS VL: DVVLTQTPLSLPVNIGDQASISCKSTKSLLNSDGFTYLDWYLQKPGQSPQLLIYLVSDRFSGVPDRFSGSGSGTDFTLTISRVEAEDLGVYYCFQSNSLPLTFGSGTKLEIK | 10
V2.0 (R40, Y46, I48, A71, K73) / v3.0 DPK24 grafted (antibody, V domains shown, XT-H2 construct expressed in COS cells; also called XT-H2 hVH V2.0 + hVL V3.0) VH: QVQLVQSGAEVKKPGASVKVSCKASGYTFTTYWMHWVRQRPGQGLYWIGYINPSTGYTEYNQKFKDRVTMTADTSISTAYMELSRLRSDDTAVYYCARWAGYTIDYWGQGTLVTVSS VL: DIVMTQSPDSLAVSLGERATINCKSTKSLLNSDGFTYLDWYQQKPGQPPKLLIYLVSDRFSGVPDRFSGSGSGTDFTLTISSLQAEDVAVYYCFQSNSLPLTFGGGTKVEIK | 8
V2.2 (Y46E) / v3.0 (antibody, V domains shown, XT-H2 construct expressed in COS cells; also called XT-H2 hVH V2.2 + hVL V3.0) VH: QVQLVQSGAEVKKPGASVKVSCKASGYTFTTYWMHWVRQRPGQGLEWIGYINPSTGYTEYNQKFKDRVTMTADTSISTAYMELSRLRSDDTAVYYCARWAGYTIDYWGQGTLVTVSS VL: DIVMTQSPDSLAVSLGERATINCKSTKSLLNSDGFTYLDWYQQKPGQPPKLLIYLVSDRFSGVPDRFSGSGSGTDFTLTISSLQAEDVAVYYCFQSNSLPLTFGGGTKVEIK | 5
V2.3 (I48M) / v3.0 (antibody, V domains shown, XT-H2 construct expressed in COS cells; also called XT-H2 hVH V2.3 + hVL V3.0) VH: QVQLVQSGAEVKKPGASVKVSCKASGYTFTTYWMHWVRQRPGQGLYWMGYINPSTGYTEYNQKFKDRVTMTADTSISTAYMELSRLRSDDTAVYYCARWAGYTIDYWGQGTLVTVSS VL: DIVMTQSPDSLAVSLGERATINCKSTKSLLNSDGFTYLDWYQQKPGQPPKLLIYLVSDRFSGVPDRFSGSGSGTDFTLTISSLQAEDVAVYYCFQSNSLPLTFGGGTKVEIK | 5

Now from value to binder:

ED50 [nM] | Binder
4 | V2.1 (R40A) / v2.0 (antibody, V domains shown, XT-H2 construct expressed in COS cells; also called XT-H2 hVH V2.1 + hVL V2.0) VH: QVQLVQSGAEVKKPGASVKVSCKASGYTFTTYWMHWVRQAPGQGLYWIGYINPSTGYTEYNQKFKDRVTMTADTSISTAYMELSRLRSDDTAVYYCARWAGYTIDYWGQGTLVTVSS VL: DVVLTQTPLSLSVTPGQPASISCKSTKSLLNSDGFTYLDWYLQKPGQSPQLLIYLVSDRFSGVPDRFSGSGSGTDFTLKISRVEAEDVGVYYCFQSNSLPLTFGGGTKVEIK
6 | V2.2 (Y46E) / mVL (antibody, V domains shown, XT-H2 construct expressed in COS cells; also called XT-H2 hVH V2.2 + mVL) VH: QVQLVQSGAEVKKPGASVKVSCKASGYTFTTYWMHWVRQRPGQGLEWIGYINPSTGYTEYNQKFKDRVTMTADTSISTAYMELSRLRSDDTAVYYCARWAGYTIDYWGQGTLVTVSS VL: DVVLTQTPLSLPVNIGDQASISCKSTKSLLNSDGFTYLDWYLQKPGQSPQLLIYLVSDRFSGVPDRFSGSGSGTDFTLTISRVEAEDLGVYYCFQSNSLPLTFGSGTKLEIK
5 | V2.0 (R40, Y46, I48, A71, K73) / v2.1 (V2I, L4M) (antibody, V domains shown, XT-H2 construct expressed in COS cells; also called XT-H2 hVH V2.0 + hVL V2.1) VH: QVQLVQSGAEVKKPGASVKVSCKASGYTFTTYWMHWVRQRPGQGLYWIGYINPSTGYTEYNQKFKDRVTMTADTSISTAYMELSRLRSDDTAVYYCARWAGYTIDYWGQGTLVTVSS VL: DIVMTQTPLSLSVTPGQPASISCKSTKSLLNSDGFTYLDWYLQKPGQSPQLLIYLVSDRFSGVPDRFSGSGSGTDFTLKISRVEAEDVGVYYCFQSNSLPLTFGGGTKVEIK
5 | V2.2 (Y46E) / v2.1 (antibody, V domains shown, XT-H2 construct expressed in COS cells; also called XT-H2 hVH V2.2 + hVL V2.1) VH: QVQLVQSGAEVKKPGASVKVSCKASGYTFTTYWMHWVRQRPGQGLEWIGYINPSTGYTEYNQKFKDRVTMTADTSISTAYMELSRLRSDDTAVYYCARWAGYTIDYWGQGTLVTVSS VL: DIVMTQTPLSLSVTPGQPASISCKSTKSLLNSDGFTYLDWYLQKPGQSPQLLIYLVSDRFSGVPDRFSGSGSGTDFTLKISRVEAEDVGVYYCFQSNSLPLTFGGGTKVEIK
5 | V2.3 (I48M) / v2.1 (antibody, V domains shown, XT-H2 construct expressed in COS cells; also called XT-H2 hVH V2.3 + hVL V2.1) VH: QVQLVQSGAEVKKPGASVKVSCKASGYTFTTYWMHWVRQRPGQGLYWMGYINPSTGYTEYNQKFKDRVTMTADTSISTAYMELSRLRSDDTAVYYCARWAGYTIDYWGQGTLVTVSS VL: DIVMTQTPLSLSVTPGQPASISCKSTKSLLNSDGFTYLDWYLQKPGQSPQLLIYLVSDRFSGVPDRFSGSGSGTDFTLKISRVEAEDVGVYYCFQSNSLPLTFGGGTKVEIK
5 | V2.1 (R40A) / v3.0 (antibody, V domains shown, XT-H2 construct expressed in COS cells; also called XT-H2 hVH V2.1 + hVL V3.0) VH: QVQLVQSGAEVKKPGASVKVSCKASGYTFTTYWMHWVRQAPGQGLYWIGYINPSTGYTEYNQKFKDRVTMTADTSISTAYMELSRLRSDDTAVYYCARWAGYTIDYWGQGTLVTVSS VL: DIVMTQSPDSLAVSLGERATINCKSTKSLLNSDGFTYLDWYQQKPGQPPKLLIYLVSDRFSGVPDRFSGSGSGTDFTLTISSLQAEDVAVYYCFQSNSLPLTFGGGTKVEIK
